What all share (experiment): protein array
The target of assay [1] is T1, killer cell lectin like receptor Cl, transcript variant 3 (human, UniProt P26715 1-233).
T1 construct: on protein array; also called KLRC1

For assay [2], the target named is T2, oxidation resistance 1, transcript variant 1 (human, UniProt Q8N573 90-874, limits assumed).
T2 construct: on protein array; also called OXR1
T2 sequence: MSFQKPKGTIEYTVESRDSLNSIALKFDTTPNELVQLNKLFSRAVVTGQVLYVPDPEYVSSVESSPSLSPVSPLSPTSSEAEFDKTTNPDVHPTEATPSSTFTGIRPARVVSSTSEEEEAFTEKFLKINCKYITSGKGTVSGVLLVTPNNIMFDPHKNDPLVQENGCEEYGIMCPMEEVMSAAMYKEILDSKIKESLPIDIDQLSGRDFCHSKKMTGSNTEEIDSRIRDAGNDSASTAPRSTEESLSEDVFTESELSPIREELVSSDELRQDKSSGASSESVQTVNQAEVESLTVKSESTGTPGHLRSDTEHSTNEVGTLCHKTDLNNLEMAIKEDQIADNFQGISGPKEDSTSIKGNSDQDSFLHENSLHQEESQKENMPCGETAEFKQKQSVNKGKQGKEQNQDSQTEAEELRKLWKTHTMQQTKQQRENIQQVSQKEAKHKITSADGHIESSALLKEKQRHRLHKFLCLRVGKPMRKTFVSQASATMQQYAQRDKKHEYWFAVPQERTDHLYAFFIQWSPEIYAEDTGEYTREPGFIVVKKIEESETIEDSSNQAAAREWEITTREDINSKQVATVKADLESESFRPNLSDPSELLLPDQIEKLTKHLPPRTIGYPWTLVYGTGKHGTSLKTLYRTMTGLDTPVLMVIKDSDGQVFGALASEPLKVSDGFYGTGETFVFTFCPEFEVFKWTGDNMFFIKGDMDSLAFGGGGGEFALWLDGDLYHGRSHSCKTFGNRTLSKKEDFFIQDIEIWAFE

Assay [3] has as its target T3, coiled-coil domain containing 74B, transcript variant 2 (human, UniProt Q96LY2 1-380).
T3 construct: on protein array; also called CCDC74B

Assay [4] has as its target T4, Kirre like nephrin family adhesion molecule 1 (human, UniProt Q96J84 17-757).
T4 construct: on protein array
T4 sequence: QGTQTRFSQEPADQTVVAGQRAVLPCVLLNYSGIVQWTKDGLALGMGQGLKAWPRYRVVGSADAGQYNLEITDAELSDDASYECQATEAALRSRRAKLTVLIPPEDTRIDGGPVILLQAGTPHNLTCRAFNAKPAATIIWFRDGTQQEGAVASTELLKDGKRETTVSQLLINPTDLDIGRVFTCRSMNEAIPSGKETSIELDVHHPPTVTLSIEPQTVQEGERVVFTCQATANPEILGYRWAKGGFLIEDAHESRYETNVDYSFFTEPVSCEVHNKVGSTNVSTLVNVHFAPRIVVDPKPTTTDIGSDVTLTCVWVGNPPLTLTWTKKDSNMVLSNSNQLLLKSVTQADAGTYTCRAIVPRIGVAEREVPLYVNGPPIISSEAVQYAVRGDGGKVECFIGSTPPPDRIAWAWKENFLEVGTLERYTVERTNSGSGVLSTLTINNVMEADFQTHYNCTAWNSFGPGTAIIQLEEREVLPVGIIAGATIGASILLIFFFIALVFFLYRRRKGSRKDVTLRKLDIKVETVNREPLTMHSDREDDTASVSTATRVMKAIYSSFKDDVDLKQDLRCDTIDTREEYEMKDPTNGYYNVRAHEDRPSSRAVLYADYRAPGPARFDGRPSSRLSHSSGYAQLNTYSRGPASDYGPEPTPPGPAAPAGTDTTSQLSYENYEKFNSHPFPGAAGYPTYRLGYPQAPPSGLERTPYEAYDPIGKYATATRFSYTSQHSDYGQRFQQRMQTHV

The target in assay [5] is T5, Ankyrin repeat domain 20 family member a5, pseudogene (human, UniProt A0PJZ0 1-165).
T5 construct: on protein array; also called ANKRD20A5P
T5 sequence (A0PJZ0 whole entry, the tested form may be a part): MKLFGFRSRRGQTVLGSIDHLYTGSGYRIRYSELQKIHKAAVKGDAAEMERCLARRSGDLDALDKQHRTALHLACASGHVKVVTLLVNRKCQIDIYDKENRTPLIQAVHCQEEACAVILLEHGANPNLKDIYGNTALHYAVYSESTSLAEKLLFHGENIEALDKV

Assay [6] addresses T6, GRB10 interacting GYF protein 1, transcript variant X10 (human, UniProt O75420 1-1035).
T6 construct: on protein array; also called GIGYF1
T6 sequence: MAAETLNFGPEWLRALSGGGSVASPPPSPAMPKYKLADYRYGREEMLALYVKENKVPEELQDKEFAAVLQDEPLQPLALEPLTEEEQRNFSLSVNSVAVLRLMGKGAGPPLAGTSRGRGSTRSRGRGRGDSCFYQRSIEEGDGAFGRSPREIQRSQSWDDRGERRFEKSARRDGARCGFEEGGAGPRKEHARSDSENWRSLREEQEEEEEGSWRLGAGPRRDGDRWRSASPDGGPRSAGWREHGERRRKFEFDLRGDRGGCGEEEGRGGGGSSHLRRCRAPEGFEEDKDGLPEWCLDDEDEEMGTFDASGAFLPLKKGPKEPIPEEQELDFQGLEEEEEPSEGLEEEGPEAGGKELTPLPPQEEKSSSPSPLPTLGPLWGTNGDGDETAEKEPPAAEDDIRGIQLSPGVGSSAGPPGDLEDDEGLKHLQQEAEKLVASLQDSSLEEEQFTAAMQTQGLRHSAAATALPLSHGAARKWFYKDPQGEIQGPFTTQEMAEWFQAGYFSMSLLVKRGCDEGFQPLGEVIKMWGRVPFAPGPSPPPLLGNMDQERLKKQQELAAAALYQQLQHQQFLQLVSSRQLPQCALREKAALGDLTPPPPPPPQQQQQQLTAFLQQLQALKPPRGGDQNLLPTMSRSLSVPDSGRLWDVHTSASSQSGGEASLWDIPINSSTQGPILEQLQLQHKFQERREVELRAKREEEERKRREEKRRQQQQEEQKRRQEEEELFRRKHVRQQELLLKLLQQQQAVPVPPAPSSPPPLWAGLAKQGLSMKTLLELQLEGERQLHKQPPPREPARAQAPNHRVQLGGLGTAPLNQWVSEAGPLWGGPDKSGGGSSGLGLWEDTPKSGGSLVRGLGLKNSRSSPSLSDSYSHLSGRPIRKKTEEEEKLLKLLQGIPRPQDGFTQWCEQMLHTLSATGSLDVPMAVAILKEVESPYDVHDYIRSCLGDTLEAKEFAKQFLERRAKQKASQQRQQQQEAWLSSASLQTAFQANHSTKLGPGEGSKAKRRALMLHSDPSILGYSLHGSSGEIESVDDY

The target in assay [7] is T7, BCL2 associated athanogene 2 (human, UniProt O95816 2-211).
T7 construct: on protein array; also called BAG2
T7 sequence (O95816 2-211 limits assumed): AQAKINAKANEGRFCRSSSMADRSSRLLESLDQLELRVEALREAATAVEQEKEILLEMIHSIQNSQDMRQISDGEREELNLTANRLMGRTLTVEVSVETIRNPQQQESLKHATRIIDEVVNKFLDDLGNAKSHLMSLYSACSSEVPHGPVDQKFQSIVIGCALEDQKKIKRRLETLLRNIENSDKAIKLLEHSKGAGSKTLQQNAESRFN

The target of assay [8] is T8, heat shock protein family A (Hsp70) member 2 (human, UniProt P54652 1-639).
T8 construct: on protein array; also called HSPA2
T8 sequence (P54652 whole entry): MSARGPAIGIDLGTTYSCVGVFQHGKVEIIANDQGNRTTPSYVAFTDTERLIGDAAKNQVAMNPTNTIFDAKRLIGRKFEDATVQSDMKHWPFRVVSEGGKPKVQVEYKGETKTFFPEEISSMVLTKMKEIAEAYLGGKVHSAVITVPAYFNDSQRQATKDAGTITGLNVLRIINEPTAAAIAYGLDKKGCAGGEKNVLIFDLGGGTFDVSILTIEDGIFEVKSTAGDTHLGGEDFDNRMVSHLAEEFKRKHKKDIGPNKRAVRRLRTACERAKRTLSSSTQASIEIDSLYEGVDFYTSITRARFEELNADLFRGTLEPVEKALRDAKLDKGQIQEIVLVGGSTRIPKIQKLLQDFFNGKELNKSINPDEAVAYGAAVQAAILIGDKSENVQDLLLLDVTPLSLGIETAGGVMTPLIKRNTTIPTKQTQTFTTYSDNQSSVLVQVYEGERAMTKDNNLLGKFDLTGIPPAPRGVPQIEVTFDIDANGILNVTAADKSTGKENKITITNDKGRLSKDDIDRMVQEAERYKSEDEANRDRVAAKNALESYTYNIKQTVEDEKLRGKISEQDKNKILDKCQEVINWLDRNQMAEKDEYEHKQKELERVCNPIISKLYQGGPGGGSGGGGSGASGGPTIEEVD

Assay [9] deals with T9, HSPA (Hsp70) binding protein 1, transcript variant 2 (human, UniProt Q9NZL4 1-359).
T9 construct: on protein array; also called HSPBP1
T9 sequence: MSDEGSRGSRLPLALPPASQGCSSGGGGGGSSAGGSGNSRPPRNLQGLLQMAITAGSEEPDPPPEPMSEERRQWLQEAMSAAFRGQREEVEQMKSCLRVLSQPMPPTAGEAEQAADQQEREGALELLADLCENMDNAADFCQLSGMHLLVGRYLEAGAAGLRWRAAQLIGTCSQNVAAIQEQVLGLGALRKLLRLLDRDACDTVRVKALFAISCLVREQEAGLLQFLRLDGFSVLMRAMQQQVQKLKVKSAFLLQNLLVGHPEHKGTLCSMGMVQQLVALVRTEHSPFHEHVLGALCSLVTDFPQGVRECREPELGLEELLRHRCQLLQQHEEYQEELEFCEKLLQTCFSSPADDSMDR

Assay [10] addresses T10, C-X-C motif chemokine receptor 4, transcript variant 2 (human, UniProt P61073 1-352).
T10 construct: on protein array; also called CXCR4

The target of assay [11] is T11, Long intergenic non-protein coding rna 242 (human, UniProt Q5T6M2 1-205).
T11 construct: on protein array; also called LINC00242
T11 chain: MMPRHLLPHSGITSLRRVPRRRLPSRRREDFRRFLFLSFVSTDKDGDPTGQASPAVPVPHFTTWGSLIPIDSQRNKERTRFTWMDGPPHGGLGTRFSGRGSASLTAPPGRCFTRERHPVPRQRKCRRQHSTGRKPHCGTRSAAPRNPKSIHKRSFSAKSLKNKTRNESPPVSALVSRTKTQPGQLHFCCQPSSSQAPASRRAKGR

In assay [12] the target is T12, glucuronidase, beta pseudogene (human).
T12 construct: on protein array; also called BC025996.2_frag
T12 chain: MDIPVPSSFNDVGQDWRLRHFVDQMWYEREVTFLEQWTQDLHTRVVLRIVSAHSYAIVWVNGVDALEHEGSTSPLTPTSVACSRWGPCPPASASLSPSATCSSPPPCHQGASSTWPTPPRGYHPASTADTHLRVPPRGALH

Assay [13] deals with T13, neural retina leucine zipper, transcript variant X4 (human, UniProt P54845 1-237).
T13 construct: on protein array; also called NRL
T13 sequence (P54845 whole entry, change not shown): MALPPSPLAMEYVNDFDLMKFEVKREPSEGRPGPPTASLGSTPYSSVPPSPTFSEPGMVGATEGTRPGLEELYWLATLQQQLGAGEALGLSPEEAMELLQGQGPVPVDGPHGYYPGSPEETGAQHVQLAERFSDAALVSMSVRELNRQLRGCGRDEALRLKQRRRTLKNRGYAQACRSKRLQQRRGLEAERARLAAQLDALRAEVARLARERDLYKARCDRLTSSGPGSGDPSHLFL

T10 sequence (P61073 whole entry, change not shown): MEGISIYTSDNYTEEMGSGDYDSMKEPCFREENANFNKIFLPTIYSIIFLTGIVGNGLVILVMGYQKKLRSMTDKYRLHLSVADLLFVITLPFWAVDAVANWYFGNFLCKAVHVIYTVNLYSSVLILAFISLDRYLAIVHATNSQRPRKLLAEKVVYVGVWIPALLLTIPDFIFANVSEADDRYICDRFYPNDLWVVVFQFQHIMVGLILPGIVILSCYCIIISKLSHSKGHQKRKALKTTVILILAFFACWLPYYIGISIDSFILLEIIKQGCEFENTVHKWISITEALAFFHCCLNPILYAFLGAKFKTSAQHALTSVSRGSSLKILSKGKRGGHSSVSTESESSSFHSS
T1 sequence (P26715 other isoform, or with tags, fused parts or gaps mutant limits assumed): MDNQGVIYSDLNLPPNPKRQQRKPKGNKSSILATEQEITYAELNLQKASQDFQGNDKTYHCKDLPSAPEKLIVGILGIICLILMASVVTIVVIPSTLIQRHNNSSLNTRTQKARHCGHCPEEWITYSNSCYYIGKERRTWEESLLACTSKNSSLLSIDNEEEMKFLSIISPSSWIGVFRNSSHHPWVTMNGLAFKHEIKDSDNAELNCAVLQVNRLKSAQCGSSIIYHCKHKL
T3 sequence (Q96LY2 other isoform, or with tags, fused parts or gaps mutant limits assumed): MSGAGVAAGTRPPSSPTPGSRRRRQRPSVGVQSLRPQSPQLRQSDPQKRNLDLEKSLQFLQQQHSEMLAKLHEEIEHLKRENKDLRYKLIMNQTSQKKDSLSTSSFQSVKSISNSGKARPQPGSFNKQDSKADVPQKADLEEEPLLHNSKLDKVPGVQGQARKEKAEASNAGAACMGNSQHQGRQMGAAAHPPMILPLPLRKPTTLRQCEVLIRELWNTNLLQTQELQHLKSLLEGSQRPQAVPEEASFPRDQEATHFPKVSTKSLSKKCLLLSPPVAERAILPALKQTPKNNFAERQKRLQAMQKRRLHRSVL

B1: TREC1003 (antibody, V domains shown)
VH: QVQLVQSGSEVKKPGASVRLACKTSGYTFSNYGVSWVRQGPGRGLEWLGWISGYNGRTHSADKFRDRVTLTTDTSTTTVYVDLKNLTSDDTAVYYCARVGTSHWYSDSWGQGTLVTVSS
VL: QSVLTQPPSVSGAPGQRVTISCAGSYSNIGAGYDVHWYRQLPGTAPTLLIYSNNNRPSGVSDRFSGSKSGTSASLAITGLQAEDEADYYCQSFDSSLSRSVFGTGTKVTVL
notes: VH/VL tied via antigen in summary, not by name in this stretch
B1: the binding result in assay [1] is “binds”.

B2: TPRO1001 (antibody, V domains shown)
VH: EVQLVQSGAEVKKPGESLRISCKGSGYSFTSFWISWVRQMPGKGLEWMGRIDPSDSYTNYSPSFQGHVTISADKSISTAFLQWSSLKASDTAMYYCARHQQKYSPISPLDYWGQGTLVTVSS
VL: QSALTQPASVSGSPGQSITISCTGTSSDVGGYNYVSWYQQHPGKAPKLMIYDVSNRPSGVSNRFSGSKSGNTASLTISGLQAEDEADYYCSSYTSSSSLVFGGGTKVTVLG
notes: as for B1
As to B2, in assay [2], the binding result was “binds”.

B3: TSAR1003 (antibody, V domains shown)
VH: QLQLQESGPGLVKPSETLSLTCTVSGVSIGTSSYYWGWIRQPPAKGLEWIGSIYYSGSTYYNPSLKNRVTISVDTSKNHFSLKLSSVTAADTAVYYCARHRTGQYYYNSWGQGTLVTVSS
VL: SSELTQDPAVSVALGQTVRITCQGDSLRTDYATWYQQKPGQAPILVFYGEDNRPSGIPDRFSGSSSGNTASLTITGAQAEDEADYYCNSRDSSGHHWVFGGGTKLTVL
notes: as for B1
As to B3, in [3], the binding result is reported as “binds”.

B4: TPRO1002 (antibody, V domains shown)
VH: EVQLVESGGGVIKPGGSLKLSCEGSGFTLDDYVMHWVRQAPGKGLEWISSISGDGTRTYYADSVKGRFTISRNNGKNSLYLQMDSLRREDTALYYCAKDARLAYYGMDVWGQGTTVTVSS
VL: QSALTQPASVSGSPGQSITISCTGTSSDIGGYDLVSWYQHHPGKAPKLVISEGSKRPSGVSNRFFGSKSGNTASLTISGLQAEDEADYYCCSFTGTSTFVFGTGTKVTVL
notes: as for B1
With B4, the binding result in assay [4], in assay [5] and in assay [6] was “binds” each time.

B5: TSAR1005 (antibody, V domains shown)
VH: QVQLVESGGGVVQPGRSLRLSCVASGFTFSNYAMHWVRQAPGKGLEWVAVIWYDGSNEYYRDSVEGRFTISRDSSKNTLYLLVNSLRAEDTAVYYCARGNGPKSGKYSDFDYWGQGTLVTVSS
VL: DVVMTQSPLSLPVTLGQAASISCRSSQSLVYSDGNTYLNWFQQRPGQSPRRLIYKVSNRESGVPDRFSGSGSGTDFTLQISRVEAEDVGIYYCMQGAHWPPITFGQGTRLEIKR
notes: as for B1
Take B5: the binding result in assay [7], in assay [8] and in assay [9] was “binds” throughout.

B6: TSAR1006 (antibody, V domains shown)
VH: QVQLVQSGTEVKKPGASVKVSCKASGYRFTSNGISWVRQAPGQGLQWMGWISTDSGNTNYAQSFQGRVTLTRDTSTNTAYLELRRLRSEDTAVYYCARDKSWYFDYWGQGTLVSVSS
VL: SYELTQPPSVSVSPGQTARITCSGDALPKKYVFWYQQRSGQAPVLVIYEDSKRPSGIPDRFSGSSSGTLATLTISGAQVEDEADYYCYSTDTIGNWVFGGGTRLTVL
notes: as for B1
For B6, the binding result in assay [10] and in [11] was “binds” in each case.

B7: TBRE1006 (antibody, V domains shown)
VH: QVQLVQSGAEVKKPGASVKVSCKASGYIFTSYAIHWVRQAPGQRLEWMGWINAGNGNTKYSQKFQGRVTITRDTSANTAYMELSSLRSEDTAIYYCARDIAVAITNYFGSWGQGTLVTVSS
VL: EIVLTQSPATLSLSPGERATLSCRASQSVGSYLAWYQQKPGQAPRLLIYDASNRATGIPARFSGSGSGTDFTLTISSLEPEDFAVYYCQQGSNWLALTFGGGTKVEIKR
notes: VH/VL only
Consider B7, for which, in assay [12], the binding result is reported as “binds”.

B8: TSAR1001 (antibody, V domains shown)
VH: EVQLVESGGGMVQPGESLRLSCAASGFDFTSYWMAWVRQAPGKGLEWVANMNADGSEKHYVDSVKGRFSISRDNAKKLLFLQMNSLTVDDTGVYYCARDEGRREGAWGQGTQVIVSA
VL: EIVLTQSPATLSFSPGDRATLSCRASQNINRFLAWYQQKPGQTPRLLIYDASTRATGIPARFSGSGSGTDFSLIISSLEPEDFAIYYCQQRNNWPITFGPGTKVDVK
notes: as for B1
Turning to B8, the binding result in [13] was “binds”.

These data come from patent publication US20220204643A1 (published 2022).
